The results in this text go back to patent US20260234242A1 (HAINAN SIMCERE ZAIMING PHARMACEUTICAL, published 2026).

Assay [1] addresses T1, human CDH6 on tumor cells (OVCAR3 cells, PA-1 cells) (human, UniProt P55285 54-790).
T1 sequence: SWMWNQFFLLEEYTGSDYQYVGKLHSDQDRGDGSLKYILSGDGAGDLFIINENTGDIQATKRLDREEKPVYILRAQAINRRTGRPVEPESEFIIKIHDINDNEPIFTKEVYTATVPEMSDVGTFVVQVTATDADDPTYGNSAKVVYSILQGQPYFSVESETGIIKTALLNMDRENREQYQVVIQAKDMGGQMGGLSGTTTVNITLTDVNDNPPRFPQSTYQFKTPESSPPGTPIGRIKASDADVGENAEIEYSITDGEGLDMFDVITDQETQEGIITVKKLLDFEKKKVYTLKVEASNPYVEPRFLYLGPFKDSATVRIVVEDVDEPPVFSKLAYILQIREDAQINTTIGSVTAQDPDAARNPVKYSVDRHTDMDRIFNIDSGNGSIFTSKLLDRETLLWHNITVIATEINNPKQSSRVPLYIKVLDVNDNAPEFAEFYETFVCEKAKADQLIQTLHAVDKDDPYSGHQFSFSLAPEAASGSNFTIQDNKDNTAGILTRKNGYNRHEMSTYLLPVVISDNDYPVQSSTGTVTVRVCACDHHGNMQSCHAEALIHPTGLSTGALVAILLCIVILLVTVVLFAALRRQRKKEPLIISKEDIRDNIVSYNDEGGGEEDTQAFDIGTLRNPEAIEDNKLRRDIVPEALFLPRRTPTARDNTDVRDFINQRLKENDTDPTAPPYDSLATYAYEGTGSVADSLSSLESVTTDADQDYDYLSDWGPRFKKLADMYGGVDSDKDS
The assay is described as follows: FACS, PA-1 cells. On the procedure:
OVCAR3 cells with high expression of CDH6 and PA-1 cells with moderate expression of CDH6 were used to detect the binding activity of the antibodies to the cells. […] The cells were washed once with PBS, counted, resuspended to 2×10⁶ cells/mL in an FACS buffer (PBS+2% FBS), and then added to a 96-well plate at 50 μL/well. The chimeric antibodies were diluted with FACS buffer (PBS+2% FBS) and added to the 96-well plate at 50 μL/well, and the plate was incubated at 4° C. for 1 h. […] The dilution was added to the 96-well plate at 50 μL/well, and the plate was incubated at 4° C. for 1 h. After the plates were centrifuged and washed 2 times with PBS, the cells were resuspended in an FACS buffer. The mean fluorescence intensity (MFI) was measured using FACS Canton II (BD). Analysis was performed by the GraphPad Prism software, data were fitted, and EC50 values were calculated. The chimeric antibodies tested had strong binding to both OVCAR3 cells and PA-1 cells.
According to the above sequences, heavy chain (HC) and light chain (LC) plasmids were constructed (the nucleic acid sequences encoding the VH and VL of the antibodies were recombined into an expression vector carrying a signal peptide (SEQ ID NO: 132, […]) and a heavy chain constant region/light chain constant region sequence to obtain recombinant plasmids expressing VH-CH1-Fc/VL-CL). According to the expression and purification methods in Example 2, the hCDH6-14 humanized antibodies were obtained, and the binding activity of the humanized antibodies was detected by ELISA and FACS (see 2.2 and 2.3 for the method).
(In general: In flow cytometry, cells or beads pass a laser one at a time.)

Assay [2] addresses T2, his-tagged human CDH6 extracellular region protein (hCDH6 ECD-his) (human, UniProt P55285 19-615).
T2 construct: also called Human CDH6-his; hCDH6-his; not shown: his tag
T2 sequence: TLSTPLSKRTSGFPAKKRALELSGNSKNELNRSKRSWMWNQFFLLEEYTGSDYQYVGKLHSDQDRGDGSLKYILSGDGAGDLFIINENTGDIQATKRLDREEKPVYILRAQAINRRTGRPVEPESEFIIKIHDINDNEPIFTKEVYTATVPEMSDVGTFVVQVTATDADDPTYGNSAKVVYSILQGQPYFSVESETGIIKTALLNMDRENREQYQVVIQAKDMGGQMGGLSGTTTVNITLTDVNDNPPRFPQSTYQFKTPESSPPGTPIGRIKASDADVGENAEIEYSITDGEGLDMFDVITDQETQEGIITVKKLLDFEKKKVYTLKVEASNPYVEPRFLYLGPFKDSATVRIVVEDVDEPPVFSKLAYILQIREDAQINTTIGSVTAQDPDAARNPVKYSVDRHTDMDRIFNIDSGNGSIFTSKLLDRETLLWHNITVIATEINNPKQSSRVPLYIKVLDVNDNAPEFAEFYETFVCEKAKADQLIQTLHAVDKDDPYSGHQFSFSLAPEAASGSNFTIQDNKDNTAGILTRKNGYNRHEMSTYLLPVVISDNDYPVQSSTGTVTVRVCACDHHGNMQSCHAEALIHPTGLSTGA
In words: ELISA, coated antigen. How it is done:
Human CDH6 protein (hCDH6 ECD-his, conventionally synthesized), monkey CDH6 protein (cynoCDH6 ECD-his, conventionally synthesized; the cynoCDH6 ECD sequence was derived from Uniprot #A0A2K5TW62 (19-615)), and murine CDH6 protein (mCDH6 ECD-his, conventionally synthesized; the mCDH6 ECD sequence was derived from Uniprot #P97326 (19-615)) were diluted with PBS to a final concentration of 1 μg/mL, and added to a 96-well ELISA plate at 100 μL/well. The plate was incubated at 4° C. overnight. The next day, the plate was washed 3 times with a plate washing solution (PBS+0.01% (v/v) Tween 20), and a blocking buffer (PBS+0.01% (v/v) Tween 20+2% (w/w) BSA) was added for blocking at room temperature for 2 h. The blocking buffer was discarded, and the plate was washed 3 times. The chimeric antibodies were diluted with 1% BSA+PBS (purchased from Cytiva, Cat. No. SH30264.01) and added to the 96-well plate at 50 μL/well. After incubation at 37° C. for 2 h, the plate was washed 3 times with a plate washing solution. […] The plate was incubated at 37° C. for 1 h and then washed 5 times with a plate washing solution. A TMB substrate (purchased from Seracare, Cat. No. 5120-0077) was added at 50 μL/well and incubated at room temperature for 10 min, then a stop solution (1.0 N HCl) was added at 50 μL/well. OD450 nm values were read using a microplate reader (Biotek). Analysis was performed by the GraphPad Prism software, data were fitted, and EC50 values were calculated. The chimeric antibodies tested all had strong binding to the human CDH6 protein, the monkey CDH6 protein, and the murine CDH6 protein.
According to the above sequences, heavy chain (HC) and light chain (LC) plasmids were constructed (the nucleic acid sequences encoding the VH and VL of the antibodies were recombined into an expression vector carrying a signal peptide (SEQ ID NO: 132, […]) and a heavy chain constant region/light chain constant region sequence to obtain recombinant plasmids expressing VH-CH1-Fc/VL-CL).
On the technique in general: In an ELISA, binding on a coated surface is turned into a signal by an enzyme label.

As usually defined, the EC50 is the concentration at which the effect is half-maximal. Read a high EC50 as a less potent agent.

B1: hCDH6-14-H5L2 (antibody, V domains shown)
VH: EVQLQQSGAEVKKPGASVKVSCKASGYTFTDNYINWVRQAPGQRLEWMGWIYPGTGNSYYNEKFKGRVTITVDTSASTAYMELSSLRSEDTAVYYCASSYGDSFDYWGQGTTVTVSS
VL: DIQMTQSPSSLSASVGDRVTITCRASQDIRNYLNWYQQKPGGAPKLLISYTSRLHSGVPSRFSGSGSGTDFTFTISSLQPEDIATYYCQQYSQLPWTFGGGTKVEIK
notes: Humanized
Consider B1, for which, in assay [1], the EC50 was found to be 230 pM and the “Max MFI” value came to 3320 MFI. For the same molecule, in assay [2], the EC50 was found to be 109 pM and the “Max OD450” value was 2.58 OD450.

B2: hCDH6-14-H1L3 (antibody, V domains shown)
VH: EVQLVQSGAEVKKPGASVKVSCKASGYTFTDNYINWVRQAPGQRLEWMGWIYPGTGNSYYNEKFKGRVTITVDTSASTAYMELSSLRSEDTAVYYCASSYGDSFDYWGQGTTVTVSS
VL: DIVMTQSPDSLAVSLGERATINCRASQDIRNYLNWYQQKPGQTPKLLISYTSRLHSGVPDRFSGSGSGTDFTLTISSLQAEDVAVYYCQQYSQLPWTFGGGTKVEIK
notes: Humanized
As to B2, in assay [1], a half-maximal effect (EC50) was put at 270 pM and the “Max MFI” value is 3580 MFI. In assay [2], the EC50 was 56 pM and the “Max OD450” value was 2.68 OD450.

B3: hCDH6-14-H5L3 (antibody, V domains shown)
VH: EVQLQQSGAEVKKPGASVKVSCKASGYTFTDNYINWVRQAPGQRLEWMGWIYPGTGNSYYNEKFKGRVTITVDTSASTAYMELSSLRSEDTAVYYCASSYGDSFDYWGQGTTVTVSS
VL: DIVMTQSPDSLAVSLGERATINCRASQDIRNYLNWYQQKPGQTPKLLISYTSRLHSGVPDRFSGSGSGTDFTLTISSLQAEDVAVYYCQQYSQLPWTFGGGTKVEIK
notes: Humanized
On to B3, for which, in assay [1], the EC50 was 210 pM and the “Max MFI” value was determined as 3600 MFI. In addition, in assay [2], the EC50 worked out at 92 pM and the “Max OD450” value was 2.72 OD450.

B4: hCDH6-14-H3L3 (antibody, V domains shown)
VH: EIQLVQSGAEVKKPGASVKVSCKASGYTFTDNYINWVRQAPGQRLEWMGWIYPGTGNSYYNEKFKGRVTLTVDTSASTAYMELSSLRSEDTAVYYCASSYGDSFDYWGQGTTVTVSS
VL: DIVMTQSPDSLAVSLGERATINCRASQDIRNYLNWYQQKPGQTPKLLISYTSRLHSGVPDRFSGSGSGTDFTLTISSLQAEDVAVYYCQQYSQLPWTFGGGTKVEIK
notes: Humanized
As for B4, in assay [1], the EC50 amounted to 190 pM and the “Max MFI” value was 3470 MFI. Also, in assay [2], the 50% effective concentration (EC50) was 113 pM and the “Max OD450” value came to 2.56 OD450.

B5: hCDH6-14-H2L3 (antibody, V domains shown)
VH: EIQLVQSGAEVKKPGASVKVSCKASGYTFTDNYINWVRQAPGQRLEWMGWIYPGTGNSYYNEKFKGRVTITVDTSASTAYMELSSLRSEDTAVYYCASSYGDSFDYWGQGTTVTVSS
VL: DIVMTQSPDSLAVSLGERATINCRASQDIRNYLNWYQQKPGQTPKLLISYTSRLHSGVPDRFSGSGSGTDFTLTISSLQAEDVAVYYCQQYSQLPWTFGGGTKVEIK
notes: Humanized
Turning to B5, in assay [1], the midpoint of the response, the EC50, lay at 220 pM and the “Max MFI” value was 3780 MFI. Further, in assay [2], the concentration for a half-maximal effect (EC50) came to 90 pM and the “Max OD450” value was 2.48 OD450.

B6: hCDH6-14-H6L2 (antibody, V domains shown)
VH: EVQLVQSGAEVKKPGASVKVSCKASGYTFTDNYINWVRQAPGQRLEWMGWIYPGTGNSYYNEKFKGRVTITVDTSASTAYMELSSLRSEDTAVYLCASSYGDSFDYWGQGTTVTVSS
VL: DIQMTQSPSSLSASVGDRVTITCRASQDIRNYLNWYQQKPGGAPKLLISYTSRLHSGVPSRFSGSGSGTDFTFTISSLQPEDIATYYCQQYSQLPWTFGGGTKVEIK
notes: Humanized
Turning to B6, in assay [1], the EC50 worked out at 260 pM and the “Max MFI” value is 3540 MFI. Besides, in assay [2], the midpoint of the response, the EC50, lay at 93 pM and the “Max OD450” value was found to be 2.62 OD450.

B7: hCDH6-14-H6L1 (antibody, V domains shown)
VH: EVQLVQSGAEVKKPGASVKVSCKASGYTFTDNYINWVRQAPGQRLEWMGWIYPGTGNSYYNEKFKGRVTITVDTSASTAYMELSSLRSEDTAVYLCASSYGDSFDYWGQGTTVTVSS
VL: DIQMTQSPSSLSASVGDRVTITCRASQDIRNYLNWYQQKPGKAFKLLISYTSRLHSGVPSRFSGSGSGTDFTFTISSLQPEDIATYYCQQYSQLPWTFGGGTKVEIK
notes: Humanized
For the molecule B7, in assay [1], the midpoint of the response, the EC50, lay at 240 pM and the “Max MFI” value worked out at 3700 MFI. Moreover, in assay [2], the EC50 amounted to 67 pM and the “Max OD450” value was found to be 2.7 OD450.

B8: hCDH6-14-H4L3 (antibody, V domains shown)
VH: EVQLVQSGAEVKKPGASVKVSCKASGYTFTDNYINWVRQAPGQGLEWMGWIYPGTGNSYYNEKFKGRVTITVDTSASTAYMELSSLRSEDTAVYYCASSYGDSFDYWGQGTTVTVSS
VL: DIVMTQSPDSLAVSLGERATINCRASQDIRNYLNWYQQKPGQTPKLLISYTSRLHSGVPDRFSGSGSGTDFTLTISSLQAEDVAVYYCQQYSQLPWTFGGGTKVEIK
notes: Humanized
As to B8, in assay [1], the EC50 came to 270 pM and the “Max MFI” value came out at 3870 MFI. Besides, in assay [2], the EC50 turned out to be 84 pM and the “Max OD450” value was found to be 2.67 OD450.
